Assay results as given in doi:10.1101/2025.03.16.643548.

Biological target: MUC2C-N (human MUC2 4256-4803, C4786A; PTS3, VWCN, D4 and VWC1) (human)
Assay: cross-linking

Substance: MUC2C-N (human MUC2 4256-4803, C4786A; PTS3, VWCN, D4 and VWC1) (domain or fragment)
- stoichiometry N: 2
